According to US20140087995A1 (published 2014):
Numbered stars: 1 amine (or outer) side, 2 acyl side, 3 side chain; on linkers, the order of the positions; unused ones are H or OH. Bridge positions count the residues as written; N and C are the ends. * marks the point of attachment. C20 diacid = O=C(O)CCCCCCCCCCCCCCCCCCC(=O)*; γGlu = O=C(O)[C@H](CCC(=O)[*:2])N[*:1]

T1: human amylin receptor (amylin 3(a) receptor: human calcitonin receptor plus RAMP-3) (human, UniProt P30988 25-474; O60896 24-148)
T1 construct: whole, on cells; functional assay used the whole cells; also called hAmylin-R; hAmylinR
T1 sequence (looked up) 1: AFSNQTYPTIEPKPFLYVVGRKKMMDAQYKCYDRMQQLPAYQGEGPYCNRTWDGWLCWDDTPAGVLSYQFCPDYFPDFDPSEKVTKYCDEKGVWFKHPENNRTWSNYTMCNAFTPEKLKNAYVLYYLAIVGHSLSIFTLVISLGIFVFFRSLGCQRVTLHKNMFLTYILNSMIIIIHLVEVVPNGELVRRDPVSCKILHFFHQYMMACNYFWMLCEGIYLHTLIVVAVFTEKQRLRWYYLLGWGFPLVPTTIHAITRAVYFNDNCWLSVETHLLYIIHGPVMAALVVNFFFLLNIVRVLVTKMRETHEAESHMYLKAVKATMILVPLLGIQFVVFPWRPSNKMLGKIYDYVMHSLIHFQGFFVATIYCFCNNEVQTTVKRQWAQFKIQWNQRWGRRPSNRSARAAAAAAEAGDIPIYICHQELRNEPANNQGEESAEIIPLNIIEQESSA
T1 sequence (looked up) 2: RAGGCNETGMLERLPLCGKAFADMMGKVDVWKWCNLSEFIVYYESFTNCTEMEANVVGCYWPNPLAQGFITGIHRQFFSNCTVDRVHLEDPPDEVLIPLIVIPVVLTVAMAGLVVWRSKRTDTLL

T2: human calcitonin receptor (human, UniProt P30988 25-474)
T2 sequence (looked up): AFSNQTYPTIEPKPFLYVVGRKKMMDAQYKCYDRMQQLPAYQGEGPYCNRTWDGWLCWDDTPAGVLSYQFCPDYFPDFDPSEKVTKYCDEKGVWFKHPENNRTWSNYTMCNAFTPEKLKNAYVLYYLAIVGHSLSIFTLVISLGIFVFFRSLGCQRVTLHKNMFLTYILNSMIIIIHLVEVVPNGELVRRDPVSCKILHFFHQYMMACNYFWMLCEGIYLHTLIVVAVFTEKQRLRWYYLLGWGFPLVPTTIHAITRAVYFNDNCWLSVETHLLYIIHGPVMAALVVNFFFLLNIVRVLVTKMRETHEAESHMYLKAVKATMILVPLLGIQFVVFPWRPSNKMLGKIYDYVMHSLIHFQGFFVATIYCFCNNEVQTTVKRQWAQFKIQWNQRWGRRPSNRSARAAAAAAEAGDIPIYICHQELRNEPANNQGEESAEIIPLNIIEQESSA

T3: human amylin receptor (amylin 3(a) receptor: human calcitonin receptor co-expressed with RAMP-3) (human, UniProt P30988 25-474; O60896 24-148, limits assumed)
T3 construct: whole, on cells; Used as cell membranes prepared from the Amylin 3(a)/CRE-luc BHK cells (Assay V); also called hAmylin-R; hAmylinR
T3 sequence (looked up) 1: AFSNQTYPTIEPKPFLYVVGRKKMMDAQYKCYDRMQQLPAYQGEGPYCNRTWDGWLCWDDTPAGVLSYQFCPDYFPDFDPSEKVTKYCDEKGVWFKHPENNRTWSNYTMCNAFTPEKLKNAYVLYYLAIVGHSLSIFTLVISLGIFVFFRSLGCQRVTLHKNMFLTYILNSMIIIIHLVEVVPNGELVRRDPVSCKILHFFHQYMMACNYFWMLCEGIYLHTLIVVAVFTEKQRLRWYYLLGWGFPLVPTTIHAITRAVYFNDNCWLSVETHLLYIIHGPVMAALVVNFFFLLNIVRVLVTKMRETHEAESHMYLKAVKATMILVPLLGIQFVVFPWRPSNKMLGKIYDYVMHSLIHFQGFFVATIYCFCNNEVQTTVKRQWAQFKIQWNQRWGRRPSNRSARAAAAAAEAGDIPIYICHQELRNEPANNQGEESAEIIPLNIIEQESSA
T3 sequence (looked up) 2: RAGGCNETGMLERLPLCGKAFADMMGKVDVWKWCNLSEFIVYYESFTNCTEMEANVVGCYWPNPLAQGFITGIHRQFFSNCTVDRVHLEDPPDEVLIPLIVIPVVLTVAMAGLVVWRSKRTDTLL

B1: N^α1-[(4S)-4-carboxy-4-(19-carboxynonadecanoylamino)butanoyl]-[Glu14,Arg17,Pro21,Pro27,His35]-h-amylin (peptide)
peptide: {C20 diacid-γGlu}-KCNTATCATQRLAEFLRHSSPNFGAIPSSTNVGSHTY-NH2
modifications: disulfide 2-7
SMILES: CC[C@H](C)[C@H](NC(=O)[C@H](C)NC(=O)CNC(=O)[C@H](Cc1ccccc1)NC(=O)[C@H](CC(N)=O)NC(=O)[C@@H]1CCCN1C(=O)[C@H](CO)NC(=O)[C@H](CO)NC(=O)[C@H](Cc1c[nH]cn1)NC(=O)[C@H](CCCNC(=N)N)NC(=O)[C@H](CC(C)C)NC(=O)[C@H](Cc1ccccc1)NC(=O)[C@H](CCC(=O)O)NC(=O)[C@H](C)NC(=O)[C@H](CC(C)C)NC(=O)[C@H](CCCNC(=N)N)NC(=O)[C@H](CCC(N)=O)NC(=O)[C@@H](NC(=O)[C@H](C)NC(=O)[C@@H]1CSSC[C@H](NC(=O)[C@H](CCCCN)NC(=O)CC[C@H](NC(=O)CCCCCCCCCCCCCCCCCCC(=O)O)C(=O)O)C(=O)N[C@@H](CC(N)=O)C(=O)N[C@@H]([C@@H](C)O)C(=O)N[C@@H](C)C(=O)N[C@@H]([C@@H](C)O)C(=O)N1)[C@@H](C)O)C(=O)N1CCC[C@H]1C(=O)N[C@@H](CO)C(=O)N[C@@H](CO)C(=O)N[C@H](C(=O)N[C@@H](CC(N)=O)C(=O)N[C@H](C(=O)NCC(=O)N[C@@H](CO)C(=O)N[C@@H](Cc1c[nH]cn1)C(=O)N[C@H](C(=O)N[C@@H](Cc1ccc(O)cc1)C(N)=O)[C@@H](C)O)C(C)C)[C@@H](C)O
notes: also called compound 18
B2: N^-1-[(4S)-4-carboxy-4-(19-carboxynonadecanoylamino)butanoyl]-Gly[Arg1,Ala14,Arg17,Pro21,Pro27,His34]-h-amylin (peptide)
peptide: {C20 diacid-γGlu}-GRCNTATCATQRLAAFLRHSSPNFGAIPSSTNVGHNTY-NH2
modifications: disulfide 3-8
SMILES: CC[C@H](C)[C@H](NC(=O)[C@H](C)NC(=O)CNC(=O)[C@H](Cc1ccccc1)NC(=O)[C@H](CC(N)=O)NC(=O)[C@@H]1CCCN1C(=O)[C@H](CO)NC(=O)[C@H](CO)NC(=O)[C@H](Cc1c[nH]cn1)NC(=O)[C@H](CCCNC(=N)N)NC(=O)[C@H](CC(C)C)NC(=O)[C@H](Cc1ccccc1)NC(=O)[C@H](C)NC(=O)[C@H](C)NC(=O)[C@H](CC(C)C)NC(=O)[C@H](CCCNC(=N)N)NC(=O)[C@H](CCC(N)=O)NC(=O)[C@@H](NC(=O)[C@H](C)NC(=O)[C@@H]1CSSC[C@H](NC(=O)[C@H](CCCNC(=N)N)NC(=O)CNC(=O)CC[C@H](NC(=O)CCCCCCCCCCCCCCCCCCC(=O)O)C(=O)O)C(=O)N[C@@H](CC(N)=O)C(=O)N[C@@H]([C@@H](C)O)C(=O)N[C@@H](C)C(=O)N[C@@H]([C@@H](C)O)C(=O)N1)[C@@H](C)O)C(=O)N1CCC[C@H]1C(=O)N[C@@H](CO)C(=O)N[C@@H](CO)C(=O)N[C@H](C(=O)N[C@@H](CC(N)=O)C(=O)N[C@H](C(=O)NCC(=O)N[C@@H](Cc1c[nH]cn1)C(=O)N[C@@H](CC(N)=O)C(=O)N[C@H](C(=O)N[C@@H](Cc1ccc(O)cc1)C(N)=O)[C@@H](C)O)C(C)C)[C@@H](C)O
B3: N^-1-[(4S)-4-carboxy-4-(19-carboxynonadecanoylamino)butanoyl]-Gly[Arg1,His14,Arg17,Pro21,Pro27,Pro34]-h-amylin (peptide)
peptide: {C20 diacid-γGlu}-GRCNTATCATQRLAHFLRHSSPNFGAIPSSTNVGPNTY-NH2
modifications: disulfide 3-8
SMILES: CC[C@H](C)[C@H](NC(=O)[C@H](C)NC(=O)CNC(=O)[C@H](Cc1ccccc1)NC(=O)[C@H](CC(N)=O)NC(=O)[C@@H]1CCCN1C(=O)[C@H](CO)NC(=O)[C@H](CO)NC(=O)[C@H](Cc1c[nH]cn1)NC(=O)[C@H](CCCNC(=N)N)NC(=O)[C@H](CC(C)C)NC(=O)[C@H](Cc1ccccc1)NC(=O)[C@H](Cc1c[nH]cn1)NC(=O)[C@H](C)NC(=O)[C@H](CC(C)C)NC(=O)[C@H](CCCNC(=N)N)NC(=O)[C@H](CCC(N)=O)NC(=O)[C@@H](NC(=O)[C@H](C)NC(=O)[C@@H]1CSSC[C@H](NC(=O)[C@H](CCCNC(=N)N)NC(=O)CNC(=O)CC[C@H](NC(=O)CCCCCCCCCCCCCCCCCCC(=O)O)C(=O)O)C(=O)N[C@@H](CC(N)=O)C(=O)N[C@@H]([C@@H](C)O)C(=O)N[C@@H](C)C(=O)N[C@@H]([C@@H](C)O)C(=O)N1)[C@@H](C)O)C(=O)N1CCC[C@H]1C(=O)N[C@@H](CO)C(=O)N[C@@H](CO)C(=O)N[C@H](C(=O)N[C@@H](CC(N)=O)C(=O)N[C@H](C(=O)NCC(=O)N1CCC[C@H]1C(=O)N[C@@H](CC(N)=O)C(=O)N[C@H](C(=O)N[C@@H](Cc1ccc(O)cc1)C(N)=O)[C@@H](C)O)C(C)C)[C@@H](C)O

Legend:
[1] = target: T1, human amylin receptor (amylin 3(a) …); assay: SPA competition, displacement of 125I-rat amylin from membranes of BHK cells with human calcitonin receptor + RAMP-3 (Assay V)
Description: The binding assay was performed using scintillation proximity assay (SPA) beads (RPNQ0001) from PerkinElmer and cell membranes from the Amylin 3(a)/CRE-luc cells (as described in Assay (II)) were used. Membranes were prepared in the following way; the cells were rinsed with PBS and incubated with Versene for approximately 5 min before harvesting. The cells were flushed with PBS and the cell-suspension was centrifuged for 5 min at 1000 rpm. Cells were homogenized (ultrathurrax) in a buffer containing 20 mM Na-HEPES and 10 mM EDTA (pH 7.4) and centrifuged at 20.000 rpm for 15 min. The resulting pellet was resuspended, homogenized and centrifuged (20.000 rpm, 15 min) in a buffer containing 20 mM Na-HEPES and 0.1 mM EDTA (pH 7.4, buffer 2). The resulting pellet was resuspended in buffer 2 and protein concentration was measured (BCA protein Assay, Pierce). The homogenate was kept cold during the whole procedure. The membranes were kept at −80° C. until use. The assay was performed in a 384 well Optiplate (PerkinElmer) in a total volume of 40 ul. Membranes were mixed with SPA beads. Final concentration of membranes 35 ng/μL final and SPA beads was 0.05 mg/well. Test-compounds were dissolved in DMSO and further diluted in assay buffer (50 mM Hepes, pH 7.4, 1 mM CaCl2, 5 mM MgCl₂, 0.1% OA and 0.02% Tween20). […] The final mixture was incubated with shaking at 400 rpm for 120 min at 25° C. prior to centrifugation (1500 rpm, 10 min). Samples were analyzed on TopCounter™ (Packard). The IC₅₀ was calculated using (one site binding competition analysis) GraphPad Prism5 as a measure of receptor affinity.

[2] = target: T2, human calcitonin receptor; assay: cell-based or functional assay
[3] = target: T1, human amylin receptor (amylin 3(a) …); assay: cell-based or functional assay
[4] = target: T3, human amylin receptor (amylin 3(a) …); assay: SPA displacement of 125I-rat amylin, hAmylin 3(a) receptor membranes
Method in brief: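 Cell membranes were prepared by homogenisation in Na-HEPES/EDTA buffer, pH 7.4, and stored at −80° C. They were then coupled to SPA beads at 35 ng/μL final and exposed to compounds in assay buffer containing CaCl2, MgCl₂, OA and Tween20. After 120 min at 25° C, plates were counted and IC₅₀ derived.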

Row | Binder | IC50 [1] | hCTR funct. EC50 (pM) [2] | Ratio hCT/hAmylin funct. [3] | hAmylin-R funct. EC50 (pM) [3] | IC50 [4]
1 | B1 | 554 pM | 742 pM | 4.8 | 154 pM | –
2 | B2 | – | – | – | – | 426 pM
3 | B3 | – | – | – | – | 217 pM
